In article PMC13326754:

Assays:
[1] = target: GST-U2AF1α (Fritillaria borealis U2AF small subunit, paralog α) (Fritillaria borealis); test: pull-down; GST-U2AF1 baits co-expressed with U2AF2-V5 in HEK293T cells; glutathione beads; washes under increasing salt concentration; western blot for V5 and GST
[2] = tested on: U2AF1beta (Fritillaria borealis); test: EMSA; settings: 330 nM; single U2AF1; never exceeded 5% bound; EMSA: 20 mM Hepes, 0.1 M NaCl, 5% glycerol, 0.5% Tween-20, pH 7.8, 50 ng/ul BSA, 0.5 mM TCEP, 0.5 mM EDTA; 1 h on ice; 6% PAGE 0.5x TBE at 4 C
[3] = tested on: U2AF1alpha (Fritillaria borealis); test: EMSA; settings: 330 nM; single U2AF1; never exceeded 5% bound; EMSA: 20 mM Hepes, 0.1 M NaCl, 5% glycerol, 0.5% Tween-20, pH 7.8, 50 ng/ul BSA, 0.5 mM TCEP, 0.5 mM EDTA; 1 h on ice; 6% PAGE 0.5x TBE at 4 C

Substance	excess protein bound on glutathione beads relative to U2AF2β [1] [%]	binding signal [2] [% bound]	binding signal [3] [% bound]
U2AF2α-V5 (Fritillaria borealis U2AF large subunit, paralog α, V5/6xHis tagged) (natural protein)	10 to 35	–	–
GGGUCGCUUCUCCCCCCCCCUAGGCGUCU [ORN.PyC]	–	< 5	< 5
GGGCUGUCCUCUUUUUUUUUUCAGGCGUCU [ORN.PyU]	–	< 5	< 5
